Among the data in the supplement of paper PMC10567573 are protein stability index values, retold here.

Sequences and labels used below:
B1: FBXO39 (parent)
chain: RVFKARIYTNRYETNEEDKTLQEI
B2: KLHL14 (parent)
chain: WLYCYDPVMDVWARKQDMNTKRAI
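Also: lentivirally expressed fusions sorted by FACS into six bins by GFP to DsRed ratio, PSI derived from sequencing read proportions per bin multiplied by bin number.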

Variants of B1 are the subject of one data set. The experiment in a line: protein stability index of a GFP-peptide fusion (GPS, HEK-293T) (PSI 1-6); higher = more stable. The following applies: c terminus: a fixed tail appended.
As for RVFKARIYTNRYETNEEDRTLQEI [K19R], the protein stability index stood at 4.

As for RVFKARIYTNRYETNEEDQTLQEI [K19Q], the protein stability index came out at 3.23.

In a further data set the parent is B2. The data set is described as above. The following applies: c terminus: a fixed tail appended.
Regarding WLCCYDPVMDVWARKQDMNTKRAI [Y3C], the protein stability index stood at 2.64.

WNYCYDPVMDVWARKQDMNTKRAI [L2N]: the protein stability index stood at 2.19.

As to WIYCYDPVMDVWARKQDMNTKRAI [L2I], the protein stability index stood at 1.84.

As to WVYCYDPVMDVWARKQDMNTKRAI [L2V], the protein stability index amounted to 2.16.

Turning to WWYCYDPVMDVWARKQDMNTKRAI [L2W], the protein stability index was determined as 1.56.

Regarding WLYCYDPVMDVWARKQDMHTKRAI [N19H], the protein stability index turned out to be 1.57.

As to WLYCYDPVMDVWARKQDMETKRAI [N19E], the protein stability index came out at 1.81.

As for WLYCYDPVMDVWARKQDMRTKRAI [N19R], the protein stability index was 1.83.

In the case of WLYCYDPVMDVWARKQDMCTKRAI [N19C], the protein stability index is 1.76.

For WLYCFDPVMDVWARKQDMNTKRAI [Y5F], the protein stability index turned out to be 2.31.

As for WLYCDDPVMDVWARKQDMNTKRAI [Y5D], the protein stability index was determined as 2.61.

Regarding WLYCRDPVMDVWARKQDMNTKRAI [Y5R], the protein stability index stood at 2.26.

For WLYCQDPVMDVWARKQDMNTKRAI [Y5Q], the protein stability index was 1.6.

For the variant WLYDYDPVMDVWARKQDMNTKRAI [C4D], the protein stability index turned out to be 2.06.

In the case of WLYNYDPVMDVWARKQDMNTKRAI [C4N], the protein stability index amounted to 2.5.

For WLYKYDPVMDVWARKQDMNTKRAI [C4K], the protein stability index came to 2.04.

Take WLYCYDPVMEVWARKQDMNTKRAI [D10E]: the protein stability index came out at 2.19.

Regarding WLYCYDPVMWVWARKQDMNTKRAI [D10W], the protein stability index worked out at 2.71.

For the variant WLYCYDPVMYVWARKQDMNTKRAI [D10Y], the protein stability index worked out at 1.92.

As for WLYCYDPVMDVWARKQDMNKKRAI [T20K], the protein stability index was 2.15.

Turning to WLYCYDPVMDVWARKQDMNQKRAI [T20Q], the protein stability index turned out to be 1.99.

As for WLYCYDPVMDVWARKQDMNFKRAI [T20F], the protein stability index was found to be 1.44.

For the variant WLYCYDPVMDVWARKQDMNHKRAI [T20H], the protein stability index came to 1.88.

Take WLYCYDPVMDVWARKQDMNYKRAI [T20Y]: the protein stability index is 2.02.

Regarding WLYCYDPVMDVWARKQDTNTKRAI [M18T], the protein stability index was 2.13.

Turning to WLYCYDPVMDVWAGKQDMNTKRAI [R14G], the protein stability index was 1.81.

On to WLYCYDPVMDVWACKQDMNTKRAI [R14C], for which the protein stability index was determined as 1.75.

On to WLYCYDPVMDVWAQKQDMNTKRAI [R14Q], for which the protein stability index is 2.45.

As for WLYCYDPVMDVWAPKQDMNTKRAI [R14P], the protein stability index amounted to 2.23.

Turning to WLYCYDPVMDVWAHKQDMNTKRAI [R14H], the protein stability index was determined as 1.97.

For WLYCYDPVMDVWASKQDMNTKRAI [R14S], the protein stability index turned out to be 1.88.

Regarding WLYCYDPVEDVWARKQDMNTKRAI [M9E], the protein stability index worked out at 1.74.

Turning to WLYCYDPVPDVWARKQDMNTKRAI [M9P], the protein stability index was found to be 2.32.

Turning to WLYCYDPVMDVWARKQLMNTKRAI [D17L], the protein stability index came out at 2.48.

As to WLYCYDPVMDVWARKQKMNTKRAI [D17K], the protein stability index was 1.65.

On to WLYCYDPVMDVWARKQFMNTKRAI [D17F], for which the protein stability index came out at 2.24.

For the variant WLYCYDPVMDVWARKQHMNTKRAI [D17H], the protein stability index amounted to 2.21.

Consider WLYCYDPVMDVWARKQRMNTKRAI [D17R], for which the protein stability index was 2.34.

For WLYCYDPVMDVWARKQPMNTKRAI [D17P], the protein stability index was determined as 2.16.

WLYCYDPVMDVWARKQCMNTKRAI [D17C]: the protein stability index was 1.74.

For WLYCYDPVMDVWARKQDMNTWRAI [K21W], the protein stability index is 2.2.

Take WLYCYDPVMDVWARKQDMNTPRAI [K21P]: the protein stability index is 1.58.

On to WLYCYDPVMDVWARKADMNTKRAI [Q16A], for which the protein stability index turned out to be 2.42.

For the variant WLYCYDPVMDVWARKYDMNTKRAI [Q16Y], the protein stability index came to 1.69.

For the variant WLYCYDPVMDVWARKEDMNTKRAI [Q16E], the protein stability index came to 2.4.

In the case of WLYCYDPVMDVWARKSDMNTKRAI [Q16S], the protein stability index is 1.94.

In the case of WLYCYDPVMDVWARKMDMNTKRAI [Q16M], the protein stability index was 2.5.

Regarding WLYCYDPVMDVRARKQDMNTKRAI [W12R], the protein stability index was 1.78.

As to WLYCYDPVMDVYARKQDMNTKRAI [W12Y], the protein stability index was found to be 2.09.

As for WLYCYDPVMDVGARKQDMNTKRAI [W12G], the protein stability index stood at 2.1.

On to WLYCYDPVMDVCARKQDMNTKRAI [W12C], for which the protein stability index is 2.09.

Take WLYCYDPVMDVAARKQDMNTKRAI [W12A]: the protein stability index amounted to 1.89.

For the variant WLYCYQPVMDVWARKQDMNTKRAI [D6Q], the protein stability index is 2.29.

In the case of WLYCYWPVMDVWARKQDMNTKRAI [D6W], the protein stability index amounted to 3.19.

As to WLYCYAPVMDVWARKQDMNTKRAI [D6A], the protein stability index was found to be 3.01.

With WLYCYDPVMDVWRRKQDMNTKRAI [A13R], the protein stability index amounted to 1.8.

For the variant WLYCYDPVMDVWLRKQDMNTKRAI [A13L], the protein stability index worked out at 1.97.

With WLYCYDPVMDVWPRKQDMNTKRAI [A13P], the protein stability index was 1.82.

Consider WLYCYDPVMDVWKRKQDMNTKRAI [A13K], for which the protein stability index is 2.52.

For the variant WLYCYDPVMDVWFRKQDMNTKRAI [A13F], the protein stability index was 1.57.

On to WLYCYDPVMDVWTRKQDMNTKRAI [A13T], for which the protein stability index turned out to be 2.1.

With WLYCYDRVMDVWARKQDMNTKRAI [P7R], the protein stability index turned out to be 1.87.

As for WLYCYDYVMDVWARKQDMNTKRAI [P7Y], the protein stability index was determined as 2.15.

For the variant WLYCYDPVMDSWARKQDMNTKRAI [V11S], the protein stability index amounted to 2.52.

Consider WLYCYDPVMDLWARKQDMNTKRAI [V11L], for which the protein stability index stood at 2.04.

For the variant WLYCYDPVMDFWARKQDMNTKRAI [V11F], the protein stability index was found to be 2.32.

Consider WLYCYDPVMDPWARKQDMNTKRAI [V11P], for which the protein stability index was 1.65.

On to WLYCYDPVMDRWARKQDMNTKRAI [V11R], for which the protein stability index came to 2.1.

In the case of WLYCYDPVMDCWARKQDMNTKRAI [V11C], the protein stability index was 1.91.

For WLYCYDPVMDVWARDQDMNTKRAI [K15D], the protein stability index came out at 1.97.

As for WLYCYDPVMDVWARCQDMNTKRAI [K15C], the protein stability index is 2.29.

Take WLYCYDPVMDVWARGQDMNTKRAI [K15G]: the protein stability index is 1.56.

Consider WLYCYDPVMDVWARIQDMNTKRAI [K15I], for which the protein stability index came to 2.11.

WLYCYDPVMDVWARVQDMNTKRAI [K15V]: the protein stability index came to 1.89.

Turning to WLYCYDPVMDVWARKQDMNTKRRI [A23R], the protein stability index was 2.62.

WLYCYDPVMDVWARKQDMNTKRPI [A23P]: the protein stability index turned out to be 1.58.

Regarding WLYCYDPVMDVWARKQDMNTKRLI [A23L], the protein stability index is 1.6.

Take WLYCYDPVMDVWARKQDMNTKRSI [A23S]: the protein stability index was found to be 1.97.

On to WLYCYDPVMDVWARKQDMNTKRII [A23I], for which the protein stability index was found to be 1.57.

As to WLYCYDPVMDVWARKQDMNTKWAI [R22W], the protein stability index was found to be 1.69.

Turning to WLYCYDPVMDVWARKQDMNTKIAI [R22I], the protein stability index is 1.74.

As for WLYCYDPVMDVWARKQDMNTKYAI [R22Y], the protein stability index was found to be 2.01.

On to WLYCYDPVMDVWARKQDMNTKMAI [R22M], for which the protein stability index amounted to 1.88.

For the variant WLYCYDPVMDVWARKQDMNTKFAI [R22F], the protein stability index came to 1.51.

In the case of WLYCYDPCMDVWARKQDMNTKRAI [V8C], the protein stability index stood at 1.81.

Turning to WLYCYDPDMDVWARKQDMNTKRAI [V8D], the protein stability index came out at 2.37.

WLYCYDPGMDVWARKQDMNTKRAI [V8G]: the protein stability index was found to be 1.58.

For WLYCYDPFMDVWARKQDMNTKRAI [V8F], the protein stability index worked out at 2.18.

For NLYCYDPVMDVWARKQDMNTKRAI [W1N], the protein stability index turned out to be 3.29.

Turning to ILYCYDPVMDVWARKQDMNTKRAI [W1I], the protein stability index amounted to 1.92.

In the case of TLYCYDPVMDVWARKQDMNTKRAI [W1T], the protein stability index was determined as 3.09.

With KLYCYDPVMDVWARKQDMNTKRAI [W1K], the protein stability index was determined as 2.55.
